Entries after “also recorded” stand apart in the source; their conditions may differ.

The test system of assay [1] is HeLa cells. Description: Calcein AM scrape loading and dye transfer in stably transfected HeLa cells. Conditions: for dye transfer: ratio, rate normalized to untransfected HeLa cells, Calcein AM scrape loading, 10 min, stably transfected HeLa, mean ± SEM. Format: cell-based, human. The protocol:
A confluent monolayer of HeLa cells (untransfected and stably transfected, as described above) was grown in DMEM with 10% FBS in coverslip bottom plates (MatTek) and placed in a temperature controlled microincubator (Zeiss). A 10×, 0.4 NA objective was used to collect DIC and GFP images every 5 seconds for 10 minutes without changing media. A pipette loaded with 1 μl Calcein AM (Invitrogen), a gap junction permissive dye with molecular weight 662, −4 charge when intracellular and fluorescent, was used to create a scrape across the monolayer. At least 5 replicate dishes were analyzed on the same day, and WT hCx47 expressing HeLas were grown and assayed as a concurrent control; assays were performed on at least 2 different batches of HeLa cells on different days. Quantitation of the rate of spread was calculated using MetaMorph, by obtaining integrated intensity at the 10th time point, within the first minute of imaging, and then at the endpoint at 10 min, and subtracting the initial intensity from that at the endpoint. Results are reported as mean and SEM, and tested for significance (p<0.05) using an unpaired Student's t-test.
In these mutants, Cx47 appears to concentrate in the ER. Unlike electrophysiologic measurements, dye transfer assays are used to assess GJIC of relatively large molecules. We also found significant differences in GJIC in HeLa cells overexpressing Cx47 lymphedema associated mutations by assessing rates of dye transfer in a conventional scrape assay using stably transfected HeLa cells normalized to rates in untransfected HeLa cells (FIG. 7D; Table 3). […] It is not surprising that the mutants show some differences in GJIC between the electrophysiologic and dye transfer assays given that they are designed to measure different kinds of transport and that Cx channel permeability is now believed to be governed by factors including molecular shape, charge and size, in addition to channel conformation and composition.

In assay [2] the test system is HeLa cells. Description: Wound assay (proliferation/migration) in confluent transfected HeLa cells. Format: cell-based, human. The note with it: for wound assay: fraction of original wound in HeLa cell monolayer after 24 hrs, mean ± SEM. On the procedure: The wound assay, a measure of proliferation/migration, was performed using differential interference contrast time lapse of over 24 hrs using confluent transfected HeLa cells. Analysis was done using TScratch (Geback T, et al. TScratch: a novel and simple software tool for automated analysis of monolayer wound healing assays. Biotechniques 2009; 46:265-74), mean±SEM of at least 10 positions along wound; the scrape width was normalized to the first image for each position. In all cases a two tailed student's T test was applied with p<0.05 considered significant.

Assay [3] concerns HeLa cells. Description: Cx47 gap junction plaque formation by immunofluorescent confocal microscopy in transfected HeLa cells. Format: cell-based, human. Conditions: near confluent transfected HeLa cells. On the procedure:
Human neonatal foreskin was collected anonymously as discarded tissue according to an IRB protocol. Samples were collected immediately after harvest in DMEM, then fixed in 2% paraformaldehyde for 2 hrs, then stored in 30% sucrose in 1×PBS overnight for cryosectioning, and sectioned in 6 μm slices at −30° C. Transfected (stable and transient) and untransfected HeLa cells were grown to near confluence in coverslip bottom dishes. All cells were rinsed with PBS and fixed with 2% paraformaldehyde. Subsequently, tissue and HeLa cells were processed similarly: following permeabilization with 0.1% Triton X, cells were blocked with 2% BSA. A human Cx47 antibody (ab) was obtained from the S. Scherer laboratory: polyclonal rabbit against amino acids 344-399 in the cytoplasmic C-terminal tail; we used human CNS tissue and positive oligodendrocyte staining as a positive control and primary antibody delete and rabbit IgG as negative controls (data not shown). Cx47 ab was diluted in 0.5% BSA in a 1:200 ratio, applied to cells and incubated at RT for one hour. Mouse monoclonal Proxl (Chemicon) was used as a lymphatic marker for the foreskin samples. Cells were incubated with the secondary abs (Donkey Anti-Rabbit Cy5 and Donkey Anti-Mouse Cy3; Invitrogen) for one hour at RT and washed; Draq5 was used as a nuclear marker. HeLa images were acquired with an inverted Olympus Fluoview 1000 Confocal Microscope 100× oil, 1.4 NA objective. Foreskin images were acquired on a Zeiss Meta LSM 510 inverted confocal microscope with 40× oil, 1.3 N.A. objective. LECs (primary human microvascular adult dermal lymphatics; Lonza) were grown in fibronectin coated coverslip bottom MatTeks dishes in EGM™-2 MV—Microvascular Endothelial Cell Medium-2 (Lonza Inc.) to approximately 80% confluence, and prepared similarly but a commercially available (AbCam) Cx47 ab, polyclonal rabbit against amino acids 41-70 in the human sequence was used along with Drag 5 nuclear marker and phalloidin to mark f-actin.
Immunofluorescence microscopy determines the presence or absence of Cx47 gap junction plaques when the constructs are transiently expressed in HeLa cells. Cx plaques reflect a physiologic accumulation of Cx channels in the cell membrane between cells (tens to thousands of channels); thus plaques are indicative of normal trafficking and gap junction formation at the cell membrane.
Immunofluorescence microscopy determines the presence or absence of Cx47 gap junction plaques when the constructs are transiently expressed in HeLa cells. A human Cx47 antibody was obtained: polyclonal rabbit against amino acids 344-399 in the cytoplasmic C-terminal tail (Orthmann-Murphy J L, et al. Mol Cell Neurosci 2007; 34:629-41); we used human CNS tissue and positive oligodendrocyte staining as a positive control and primary antibody delete as a negative control (data not shown). Cultured HeLa cells were routinely fixed and stained with the primary antibodies against Cx47, along with a nuclear marker, and transfected cells were identified by their EGFP signal. Plaques were imaged using an Olympus Fluoview 1000 confocal microscope, 100× oil objective.

Assay [4] concerns Adult human dermal lymphatic microvascular endothelial cells. Description: Lucifer yellow microinjection dye spread in lymphatic endothelial cells expressing mutant constructs. Type of assay: cell-based. Conditions: Dye spread to tiers of LECs after 2 min; Lucifer yellow microinjection; mean ± SEM. The protocol:
Adult human dermal lymphatic microvascular endothelial cells were cultured in EGM™-2 MV (both from Lonza). Cells were electroporated with 2 μg cDNA of the EGFP tagged mutant constructs and then selected with G418 as described above. Cells were microinjected using a combination (1:4 ratio) of 70 kd Texas Red dextran (Invitrogen) to mark injected cell for reference and Lucifer yellow, a known gap junction permeable dye (m.w. 443, −2 charge), to assess change in extent of spread (Abbaci M, et al. Advantages and limitations of commonly used methods to assay the molecular permeability of gap junctional intercellular communication. Biotechniques 2008; 45:33-52, 6-62). All cells were injected using constant conditions and cells were scored for dye spread in tiers from reference cell, using constant exposure time and thresholding, and were imaged using a Nikon TE2000 with temperature controlled motorized stage and Qlmaging Retiga CCD camera. Images were obtained using differential interference contrast (DIC) and standard filters for EGFP (identify expression of mutation), DAPI (for Lucifer yellow) and dsRed (for dextran) preinjection, immediately post-injection and 2 min after injection. Results were calculated as mean SEM and statistical significance was determined in comparison to WT-hCx47-EGFP expressing cells using a Mann-Whitney Test.

B1: WT-hCx47: human wild type Cx47 construct in bicistronic pIRES2-EGFP vector, expressed in HeLa cells or LECs (protein, UniProt Q5T442 1-439, looked up)
Gap junction gamma-2 protein: MTNMSWSFLTRLLEEIHNHSTFVGKVWLTVLVVFRIVLTAVGGEAIYSDEQAKFTCNTRQPGCDNVCYDAFAPLSHVRFWVFQIVVISTPSVMYLGYAVHRLARASEQERRRALRRRPGPRRAPRAHLPPPHAGWPEPADLGEEEPMLGLGEEEEEEETGAAEGAGEEAEEAGAEEACTKAVGADGKAAGTPGPTGQHDGRRRIQREGLMRVYVAQLVARAAFEVAFLVGQYLLYGFEVRPFFPCSRQPCPHVVDCFVSRPTEKTVFLLVMYVVSCLCLLLNLCEMAHLGLGSAQDAVRGRRGPPASAPAPAPRPPPCAFPAAAAGLACPPDYSLVVRAAERARAHDQNLANLALQALRDGAAAGDRDRDSSPCVGLPAASRGPPRAGAPASRTGSATSAGTVGEQGRPGTHERPGAKPRAGSEKGSASSRDGKTTVWI
Turning to B1, the dye transfer in the assay on HeLa cells [1] was 1.80. Moreover, in the assay with HeLa cells [2], the wound assay is recorded as 0.72. Further, the “Cx47 plaque formation (in words)” value in the assay on HeLa cells [3] was “Presence”; in the assay on HeLa cells [3] (listed as WT-hCx47-EGFP), “Cx47 intercellular plaques”. The LEC spread in assay [4] stood at 1.4 tiers.

B2: G146S: Cx47 missense mutant G146S (436G>A), intracellular loop, construct expressed in HeLa cells or LECs (protein, listed as Homo sapiens)
chain: MSWSFLTRLLEEIHNHSTFVGKVWLTVLVVFRIVLTAVGGEAIYSDEQAKFTCNTRQPGCDNVCYDAFAPLSHVRFWVFQIVVISTPSVMYLGYAVHRLARASEQERRRALRRRPGPRRAPRAHLPPPHAGWPEPADLGEEEPMLSLGEEEEEEETGAAEGAGEEAEEAGAEEACTKAVGADGKAAGTPGPTGQHDGRRRIQREGLMRVYVAQLVARAAFEVAFLVGQYLLYGFEVRPFFPCSRQPCPHVVDCFVSRPTEKTVFLLVMYVVSCLCLLLNLCEMAHLGLGSAQDAVRGRRGPPASAPAPAPRPPPCAFPAAAAGLACPPDYSLVVRAAERARAHDQNLANLALQALRDGAAAGDRDRDSSPCVGLPAASRGPPRAGAPASRTGSATSAGTVGEQGRPGTHERPGAKPRAGSEKGSASSRDGKTTVWI
As to B2, the dye transfer with HeLa cells [1] is 1.05. Moreover, the “Calcein AM dye transfer compared to WT-hCx47 transfected HeLa cells (in words)” value in the assay with HeLa cells [1] (stably transfected HeLa cells, scrape assay) is “less”. The “wound closure compared to WT-hCx47-EGFP transfected cells (in words)” value with HeLa cells [2] (HeLa cells, cell scratch assay) is given as “faster wound closure; also recorded: more rapid closure”. In the assay with HeLa cells [2], this molecule showed a wound assay of 0.62. Besides, in the assay on HeLa cells [3], the “Cx47 plaque formation (in words)” value is reported as “Cx47 intercellular plaques”. In addition, in assay [4], the LEC spread is recorded as 2.0 tiers.

(Values after patent publication US9260754B2, “Connexin mutation detection for lymphatic variation and disease” (University of Pittsburgh—Of the Commonwealth System of …, priority 2010, dated 2016).)
